Data on four molecules can be found in article PMC6177200, “EpCAM ectodomain EpEX is a ligand of EGFR that counteracts EGF-mediated epithelial-mesenchymal transition through modulation of phospho-ERK1/2 in head and neck cancers” (PLoS Biology, 2018).

Assay [1] concerns the target T1, EpEX-Fc (extracellular domain of EpCAM fused to the constant region of human immunoglobulin 1) (human), P16422.
T1 chain: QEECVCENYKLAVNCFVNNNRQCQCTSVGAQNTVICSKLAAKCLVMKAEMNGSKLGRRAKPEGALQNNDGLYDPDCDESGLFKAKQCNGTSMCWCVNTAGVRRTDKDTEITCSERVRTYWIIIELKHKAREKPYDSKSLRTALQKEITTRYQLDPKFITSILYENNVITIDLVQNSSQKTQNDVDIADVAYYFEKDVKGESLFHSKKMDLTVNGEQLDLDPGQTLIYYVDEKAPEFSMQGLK
Kind of assay: native gel or EMSA; purified EpEX-Fc in native versus reducing immunoblot experiments with specific antibodies. The following applies: remark: other sources report otherwise.

The target of assay [2] is epidermal growth factor receptor (EGFR), endogenous full-length (human (endogenous in FaDu, Cal27, HCT8), UniProt P00533 25-1210). Kind of assay: cell-based or functional assay.
The target of assay [3] is T2, EGFRex (extracellular domain of EGFR, aa 25-642) (UniProt P00533 25-642).
T2 construct: extracellular domain of epidermal growth factor receptor, aa 25-642; source: expressed and purified as reported [118]
Kind of assay: cross-linking; BS3 cross-linker (3.6 μg, 30 min, 37 °C); EpEX and EGF 250 pmol, EGFRex 50 pmol in 9 μl of 20 mM HEPES pH 8.0, 100 mM NaCl, 1 hr at 37 °C before; EGF added where indicated. The following applies: both partners purified.

Assay [4] has as its target T3, EpEX (extracellular domain of EpCAM, aa 24-265), recombinant (human), P16422.
T3 chain: T1 chain
The assay is described as above. The following applies: remark: other sources report otherwise.

Where “and” joins values, the source holds several entries; their conditions need not be identical. Equal entries are not always repeated.

B1: EpEX-Fc (extracellular domain of EpCAM fused to the constant region of human immunoglobulin 1), P16422 24-265 (Fc fusion)
chain: T1 chain
modifications: here or on the partner: N-glycosylated; N-glycosylated
Take B1: in assay [1], the stoichiometry N was 2 and 3.

B2: EpEX-Fc (extracellular domain of EpCAM fused to the constant region of human immunoglobulin 1) (Fc fusion, UniProt P16422 24-265, looked up)
chain: T1 chain
modifications: N-glycosylated
On to B2, for which, in assay [2], the “increase in cell numbers of serum-starved FaDu cells after 72 hr with high-dose EpEX (10 nM); blocked by Cetuximab” value was determined as 1.5 fold; the “increase in cell numbers of serum-starved Kyse30 cells after 72 hr with EpEX-Fc (1 and 10 nM; low dose without significant effect); blocked by Cetuximab” value was 2 fold; the “pERK1/2 by immunofluorescence in cells treated for 30 min with EpEX-Fc (10 nM) compared to EGF (9 nM)” value came to 3 fold.

B3: EpEX (extracellular domain of EpCAM, aa 24-265), recombinant (domain or fragment, human, UniProt P16422 24-265, looked up)
chain: T1 chain
notes: extracellular domain of EpCAM, aa 24-265; also called purified recombinant EpEX; source: Sf9 insect cells, purified as described [47]
Consider B3, for which the “stoichiometry N” value in assay [3] is 1 EpEX per EGFRex and 2 EpEX per EGFRex.

B4: EpEX (extracellular domain of EpCAM, aa 24-265), recombinant, P16422 24-265 (domain or fragment)
chain: T1 chain
For the molecule B4, the stoichiometry N in assay [4] came out at 2.
